Numbering of substitutions follows the chain as printed. Names may count otherwise. Each block holds one binder with its values, some of them ahead of it.
What was measured:
[1] = target: T1, Recombinant Human GFRα-1/GDNF Rα-1 Fc Chimera (human, UniProt P56159 25-429); assay: ELISA, plate-bound human GFRα1-Fc; 4 C sample
T1 construct: Purchased Fc chimera; It was captured on protein A in Biacore and coated on the plate in ELISA; also called GFRα1-Fc; recombinant human GFRα1-Fc chimera, carrier-free; not shown: Fc part of a purchased Fc chimera
T1 sequence (looked up): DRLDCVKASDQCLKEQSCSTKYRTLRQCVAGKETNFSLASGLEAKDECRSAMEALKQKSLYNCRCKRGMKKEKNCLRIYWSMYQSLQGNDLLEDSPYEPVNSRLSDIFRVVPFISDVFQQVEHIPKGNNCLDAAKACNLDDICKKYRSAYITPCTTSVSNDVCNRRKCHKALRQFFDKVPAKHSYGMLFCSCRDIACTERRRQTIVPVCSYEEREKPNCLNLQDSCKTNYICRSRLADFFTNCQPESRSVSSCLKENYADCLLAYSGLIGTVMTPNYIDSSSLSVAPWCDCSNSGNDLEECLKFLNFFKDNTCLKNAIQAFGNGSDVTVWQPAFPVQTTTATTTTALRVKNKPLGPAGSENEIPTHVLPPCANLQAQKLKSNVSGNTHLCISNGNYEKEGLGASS
Procedure: GDNF wild type and variants are tested in an ELISA assay, in which binding of the GDNF proteins to the plate-bound receptor (GFRα1) is measured. A “no GDNF” condition and/or an “irrelevant protein” condition are used as negative controls.
Each well of a 96-well plate (Greiner 655081 Immunobind ELISA plates) is coated with 70 μl of human GFRα1 (recombinant human GFRα1-Fc chimera, carrier-free) at 1 μg/ml in carbonate buffer, pH 9.6. If an irrelevant receptor is coated, it is an irrelevant Fc chimera and is coated at the same concentration as GFRα1. The plates are sealed and incubated at 4° C. overnight. The wells are aspirated and washed twice with washing buffer (20 mM Tris (hydroxymethyl) aminomethane, pH 7.4, 0.15 M NaCl, 0.1% Tween-20), using an automatic plate washer. The plates are blocked with 200 μl blocking buffer per well (3% Carnation Instant milk in the above washing buffer) for at least 1 hour at room temperature. Plates are washed twice with washing buffer.
GDNF proteins are serially diluted into blocking buffer at an appropriate concentration range, typically beginning at 5 μg/ml and serially diluting 1:10. A no GDNF control is used, which consists of blocking buffer alone. 50 μl of each GDNF solution is added to the GFRα1 coated wells in triplicate. The plates are incubated for 1.5 hours at room temperature. The wells are then washed 3 times with washing buffer.

[2] = target: T1, Recombinant Human GFRα-1/GDNF Rα-1 Fc …; assay: Biacore (SPR), GFRα-1; 4 C sample of the 4-week stability comparison
[3] = target: T1, Recombinant Human GFRα-1/GDNF Rα-1 Fc …; assay: SPR (Biacore 2000), GFRα1-Fc captured on protein A, GDNFv as analyte, 1:1 Langmuir, 25 C
Procedure: (§1) A Biacore® 2000 instrument is used to measure the binding kinetics of GDNFv to human and rat GDNF family receptors (GFRα1 and GFRα2). Measurements are performed at 25° C. Samples are dissolved in HBS-EP buffer (150 mM sodium chloride, 3 mM EDTA, 0.005% (w/v) surfactant P-20, pH 7.4). Protein A, Staphylococcus aureus is immobilized on flow cells 1 to 4 of a CM4 sensor chip (GE Healthcare #BR-1005-39) at a level of ˜200 response units (RUs) using amine coupling chemistry to capture GFR Fc chimera (Recombinant Human GFRα-1/GDNF Rα-1 Fc Chimera; Recombinant Human GFRα-2/GDNF Rα-2 Fc Chimera; Recombinant Rat GFRα-1/GDNF Rα-1 Fc Chimera; Recombinant Mouse GFRα-2/GDNF Rα-2 Fc Chimera).
(§2) Binding is evaluated using multiple cycles. Each cycle consists of the following steps: 1) injection of about 10 μL of GFR at a concentration of ˜1.0 μg/mL and a flow rate of 10 μL/min., aiming at a capture of 120-150 RUs; 2) injection of 250 μL of GDNFv at a flow rate of 50 μL/min., in a final concentration rage between 10 nM and 0.04 nM followed by […]. for dissociation; and 3) regeneration using about 30 μL of 10 mM glycine hydrochloride, pH 1.5. Association and dissociation rates for each cycle are evaluated using a “1:1 (Langmuir) binding” model in the BIAevaluation software, version 4.1.

human c-Ret = human c-Ret (human, UniProt P07949 29-1114, phosphorylation at Y1016 is the readout); assay: cell-based or functional assay
Sequence of human c-Ret (P07949 29-1114): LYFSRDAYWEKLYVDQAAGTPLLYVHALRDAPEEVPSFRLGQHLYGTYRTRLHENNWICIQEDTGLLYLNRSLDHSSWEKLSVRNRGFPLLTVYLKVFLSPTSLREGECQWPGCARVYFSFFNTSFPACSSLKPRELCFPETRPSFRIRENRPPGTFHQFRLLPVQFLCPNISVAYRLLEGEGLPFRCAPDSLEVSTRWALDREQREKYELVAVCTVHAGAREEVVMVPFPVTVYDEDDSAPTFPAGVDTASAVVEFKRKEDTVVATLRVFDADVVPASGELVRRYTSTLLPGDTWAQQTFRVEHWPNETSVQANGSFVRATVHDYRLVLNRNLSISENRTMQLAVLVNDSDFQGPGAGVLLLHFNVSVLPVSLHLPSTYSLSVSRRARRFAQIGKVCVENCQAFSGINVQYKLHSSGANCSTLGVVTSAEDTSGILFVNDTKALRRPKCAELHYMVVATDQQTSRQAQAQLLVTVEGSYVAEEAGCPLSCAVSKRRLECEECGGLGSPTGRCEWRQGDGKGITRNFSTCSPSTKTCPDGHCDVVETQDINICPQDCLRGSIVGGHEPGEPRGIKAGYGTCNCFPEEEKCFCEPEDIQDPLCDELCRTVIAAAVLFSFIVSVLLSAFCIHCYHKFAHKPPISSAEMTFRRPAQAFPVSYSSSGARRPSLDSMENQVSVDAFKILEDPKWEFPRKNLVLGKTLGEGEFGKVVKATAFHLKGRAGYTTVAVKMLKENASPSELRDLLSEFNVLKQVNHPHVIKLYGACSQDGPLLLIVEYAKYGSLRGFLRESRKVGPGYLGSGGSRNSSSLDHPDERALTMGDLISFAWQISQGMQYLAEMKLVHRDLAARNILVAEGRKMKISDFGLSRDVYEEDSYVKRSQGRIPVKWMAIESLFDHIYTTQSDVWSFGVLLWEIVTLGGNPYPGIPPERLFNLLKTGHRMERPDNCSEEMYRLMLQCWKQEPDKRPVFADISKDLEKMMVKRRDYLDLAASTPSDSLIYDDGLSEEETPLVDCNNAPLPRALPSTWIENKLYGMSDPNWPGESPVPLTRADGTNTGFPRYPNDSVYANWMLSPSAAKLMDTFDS

[4] = target: T2, Recombinant Rat GFRα-1/GDNF Rα-1 Fc Chimera (rat, UniProt Q62997 25-445); assay: SPR (Biacore 2000), rat GFRα1-Fc captured on protein A, GDNFv as analyte, 1:1 Langmuir, 25 C
T2 construct: Purchased Fc chimera; not shown: Fc part of a purchased Fc chimera
T2 sequence (looked up): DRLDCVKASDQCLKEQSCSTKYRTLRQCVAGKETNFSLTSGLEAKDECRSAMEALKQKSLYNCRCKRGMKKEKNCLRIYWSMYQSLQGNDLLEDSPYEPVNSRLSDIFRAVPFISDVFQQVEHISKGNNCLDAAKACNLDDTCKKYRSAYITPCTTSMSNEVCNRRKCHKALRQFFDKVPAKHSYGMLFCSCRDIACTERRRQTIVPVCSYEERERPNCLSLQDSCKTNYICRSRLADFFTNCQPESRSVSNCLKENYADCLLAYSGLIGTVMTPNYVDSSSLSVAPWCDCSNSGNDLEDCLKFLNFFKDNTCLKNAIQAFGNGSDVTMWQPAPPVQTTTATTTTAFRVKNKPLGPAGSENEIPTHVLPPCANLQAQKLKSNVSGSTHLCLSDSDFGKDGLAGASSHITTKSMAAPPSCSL
Procedure: as §1, §2

EC50 [1]: 600 pM
Kd [2]: 29 pM
Kd [3]: 29 pM
koff [3]: 9e-05 s⁻¹
kon [3]: 3.8e+06 M⁻¹ s⁻¹
c-Ret phosphorylation at Y1016, EC50 (human c-Ret): 0.008 to 0.015 µg/mL
Kd [4]: 44 pM
koff [4]: 0.00024 s⁻¹
kon [4]: 5.6e+06 M⁻¹ s⁻¹
B1: CHO-Δ31-GDNF (SEQ ID NO: 8) (ligand)
chain: RGQRGKNRGCVLTAIHLNVTDLGLGYETKEELIFRYCSGSCDAAETTYDKILKNLSRNRRLVSDKVGQACCRPIAFDDDLSFLDDNLVYHILRKHSAKRCGCI
modifications: N-glycosylated at N49 (numbering of mature GDNF)
notes: Expressed in CHO cells; also called CHO-Δ31-GDNFv; WT CHO Δ31-GDNFv

EC50 [1]: 800 pM
Kd [2]: 30 pM
Kd [3]: 30 pM
koff [3]: 0.00011 s⁻¹
kon [3]: 4.5e+06 M⁻¹ s⁻¹
c-Ret phosphorylation at Y1016, EC50 (human c-Ret): 0.008 to 0.015 µg/mL
Kd [4]: 20 pM
koff [4]: 0.00019 s⁻¹
kon [4]: 9.4e+06 M⁻¹ s⁻¹
B2: CHO-Δ31-N38Q-D95E-GDNF (SEQ ID NO: 9) (ligand)
chain: B1 chain with N7Q, D64E
modifications: N-glycosylated at N49 (numbering of mature GDNF)
notes: Expressed in CHO cells; also called CHO-Δ31-N38Q-D95E-GDNFv; GDNF variant 2

From patent US20130324474A1 (Eli Lilly, published 2013)
